How the values were obtained:
IL31RA (mouse) = IL31RA (mouse) (UniProt Q8K5B1); test: cell-based or functional assay
TrkA (mouse) = TrkA (mouse) (UniProt Q3UFB7); test: cell-based or functional assay
UniProt Q3UFB7, sequence (Q3UFB7 34-799): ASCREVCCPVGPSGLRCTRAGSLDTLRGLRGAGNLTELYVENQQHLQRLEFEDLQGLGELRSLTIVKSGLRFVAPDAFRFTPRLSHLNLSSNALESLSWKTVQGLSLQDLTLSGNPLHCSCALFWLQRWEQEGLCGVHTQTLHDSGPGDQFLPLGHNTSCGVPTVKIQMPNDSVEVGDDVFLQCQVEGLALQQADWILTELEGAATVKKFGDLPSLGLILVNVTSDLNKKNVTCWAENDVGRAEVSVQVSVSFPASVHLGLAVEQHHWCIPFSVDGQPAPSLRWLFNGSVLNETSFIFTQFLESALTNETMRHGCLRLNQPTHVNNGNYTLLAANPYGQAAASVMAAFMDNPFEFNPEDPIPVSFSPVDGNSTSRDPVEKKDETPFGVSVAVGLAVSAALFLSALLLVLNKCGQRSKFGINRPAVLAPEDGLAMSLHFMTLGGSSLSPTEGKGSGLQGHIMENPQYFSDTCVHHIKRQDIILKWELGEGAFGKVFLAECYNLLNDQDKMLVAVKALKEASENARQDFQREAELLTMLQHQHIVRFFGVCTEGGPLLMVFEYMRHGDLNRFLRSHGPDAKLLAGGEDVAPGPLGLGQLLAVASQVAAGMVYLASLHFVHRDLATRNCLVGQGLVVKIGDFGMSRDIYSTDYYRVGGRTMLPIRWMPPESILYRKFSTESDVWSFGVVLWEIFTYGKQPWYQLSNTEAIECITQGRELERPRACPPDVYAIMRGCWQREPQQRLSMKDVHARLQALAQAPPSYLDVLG

UniProt Q8K5B1, sequence (Q8K5B1 19-716): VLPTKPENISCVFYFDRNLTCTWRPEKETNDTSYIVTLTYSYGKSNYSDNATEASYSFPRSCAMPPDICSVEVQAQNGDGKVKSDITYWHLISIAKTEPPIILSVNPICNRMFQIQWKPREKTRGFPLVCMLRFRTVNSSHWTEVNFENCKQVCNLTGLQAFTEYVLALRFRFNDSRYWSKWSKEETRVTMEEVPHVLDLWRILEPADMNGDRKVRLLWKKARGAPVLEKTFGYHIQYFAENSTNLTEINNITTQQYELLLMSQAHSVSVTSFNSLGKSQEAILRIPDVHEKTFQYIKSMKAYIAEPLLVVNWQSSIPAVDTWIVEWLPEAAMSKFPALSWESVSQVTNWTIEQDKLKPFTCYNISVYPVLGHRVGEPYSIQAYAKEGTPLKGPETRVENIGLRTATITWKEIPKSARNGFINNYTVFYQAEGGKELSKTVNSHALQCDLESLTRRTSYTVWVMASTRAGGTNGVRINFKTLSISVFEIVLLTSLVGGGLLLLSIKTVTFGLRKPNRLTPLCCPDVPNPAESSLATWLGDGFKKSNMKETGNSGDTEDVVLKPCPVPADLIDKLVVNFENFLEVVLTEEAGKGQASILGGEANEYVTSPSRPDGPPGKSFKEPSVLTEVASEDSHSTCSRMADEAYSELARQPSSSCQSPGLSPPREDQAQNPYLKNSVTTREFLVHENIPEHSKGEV

Substance: IL31^K134A-SNAP::AAV2-ΔHSPG (from UniProt P03135 1-735)
- overlap of virally infected cells with K14 positive keratinocytes, skin of wildtype mice, subcutaneous 3E+10 VG (IL31RA (mouse)): 100 percent

Substance: NGF^R121W-SNAP::AAV2-ΔHSPG (from UniProt P03135 1-735)
- TrkA positive DRG cells infected after retro-orbital injection of 3E+10 VG (TrkA (mouse)): 80%
- infected DRG cells that are TrkA positive after retro-orbital injection of 3E+10 VG (TrkA (mouse)): 83%
- overlap of virally infected (tdTomato) sensory neurons with TrkA antibody staining, trigeminal ganglia, 3 weeks after IV injection (TrkA (mouse)): > 80%
